In patent US20240052064A1 (Bristol-Myers Squibb, published 2024):

Tests used:
Human BCMA, TPP208 [1] = biological target: T1, Human BCMA, TPP208 (human, UniProt Q02223 1-54, limits assumed); assay: SPR (Biacore T200), single-cycle kinetics, antibody captured on anti-human IgG, antigen injected; sensorgram of sample stored at pH 4, 40 C compared with the non-stressed standard
T1 construct: also called Antigen 1
T1 sequence (looked up): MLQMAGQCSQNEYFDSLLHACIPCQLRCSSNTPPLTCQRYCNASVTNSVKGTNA
Experimental: (§1) SPR experiments were performed using a Biacore T200 system (GE Healthcare, Uppsala, Sweden) with analysis and sample compartment temperatures set at 25° C. and 7° C. respectively.
(§2) Anti-Human IgG (from anti-human IgG Capture Kit) was amine coupled to the surface of a CM5 chip according to the manufacturer's instructions. Molecule bispecific antibodies diluted to 1 μg/mL in running buffer were captured on the chip surface in a 60 s injection. Following the single-cycle kinetics procedure, antigen was next injected five times (30 s per injection) at incrementally increasing concentrations at a flow rate of 30 μL/min. Antigen concentrations ranged from 0.08 to 50 nM for BCMA and between 12.7 to 1000 nM for CD3. A 300 s dissociation time was added after the last antigen injection. Following each experiment, all flow cells were regenerated using a 30 s injection of 3M MgCl₂.
(§3) Prior to analysis, data were double referenced by first subtracting data from a reference flow cell and then subtracting a blank cycle where buffer was injected instead of antigen. The sensorgram comparison analysis was implemented using a Biacore T200 (software version 3.0). All data were normalized with respect to the response where 100% reflects the maximum binding obtained during injection and 0% reflects the baseline. Average and ±3 standard deviation (SD) sensorgrams were calculated from ten or more independent sensorgrams of each molecule's non-stressed material (standard). For quantitation of binding similarities of the stressed samples against the corresponding non-stressed standard, sample sensorgrams were co-evaluated with the sensorgrams of the standard. The degree of similarity was calculated based on how many sample data points fell inside or outside the ±3 standard deviation limits according to Equation 2, where SSQ is the sum of squares (Karlsson, R, Pol, E., and Frostell, A. (2016); Analytical Biochemistry 502, 53-63).

Human CD3ED, TPP401 [2] = biological target: T2, Human CD3ED, TPP401 (human, UniProt P07766 23-126; P04234 22-105); assay: as above
T2 construct: 'CD3ED' is read here as the CD3 epsilon/delta pair; also called Antigen 2
Experimental: as §1, §2, §3

[3] = biological target: T3, BCMA on cells (JEKO cells, plasmablasts) (human, UniProt Q02223 1-184); assay: cell-based or functional assay
T3 sequence (looked up): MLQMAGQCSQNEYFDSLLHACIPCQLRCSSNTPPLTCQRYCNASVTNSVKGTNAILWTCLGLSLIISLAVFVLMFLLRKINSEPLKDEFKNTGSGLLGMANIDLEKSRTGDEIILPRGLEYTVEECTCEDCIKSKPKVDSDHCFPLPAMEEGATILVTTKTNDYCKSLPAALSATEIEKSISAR

Human BCMA, TPP208 [4] = biological target: T1, Human BCMA, TPP208; assay: SPR (Biacore T200), single-cycle kinetics, antibody captured on anti-human IgG, antigen injected; sensorgram of sample stored at pH 8, 40 C compared with the non-stressed standard
Experimental: as §1, §2, §3

Human CD3ED, TPP401 [5] = biological target: T2, Human CD3ED, TPP401; assay: as above
Experimental: as §1, §2, §3

Human BCMA, TPP208 [6] = biological target: T1, Human BCMA, TPP208; assay: SPR (Biacore T200), single-cycle kinetics, antibody captured on anti-human IgG, antigen injected; sensorgram of sample stored at pH 6 with tert-butyl peroxide, 40 C compared with the non-stressed standard
Experimental: as §1, §2, §3

Human CD3ED, TPP401 [7] = biological target: T2, Human CD3ED, TPP401; assay: as above
Experimental: as §1, §2, §3

BCMA = biological target: T4, BCMA (human, UniProt Q02223 1-54, limits assumed)
T4 construct: also called B cell maturation antigen; TNFRSF17
T4 sequence (looked up): T1 sequence (looked up)

[8] = biological target: T3, BCMA on cells (JEKO cells, plasmablasts); assay: cell-based or functional assay; remark: listed apart in the source
Human BCMA, TPP208 [9] = biological target: T1, Human BCMA, TPP208; assay: SPR (Biacore T200), single-cycle kinetics, antibody captured on anti-human IgG, antigen injected; sensorgram of sample stored at pH 6, 40 C compared with the non-stressed standard
Experimental: as §1, §2, §3

Human CD3ED, TPP401 [10] = biological target: T2, Human CD3ED, TPP401; assay: as above
Experimental: as §1, §2, §3

[11] = biological target: T3, BCMA on cells (JEKO cells, plasmablasts); assay: cell-based or functional assay; remark: listed apart in the source

T2 sequence (P07766 23-126, chain 1 of 2): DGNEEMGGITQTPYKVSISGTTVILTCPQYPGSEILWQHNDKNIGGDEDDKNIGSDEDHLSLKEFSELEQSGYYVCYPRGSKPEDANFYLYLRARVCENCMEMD
T2 sequence (P04234 22-105, chain 2 of 2): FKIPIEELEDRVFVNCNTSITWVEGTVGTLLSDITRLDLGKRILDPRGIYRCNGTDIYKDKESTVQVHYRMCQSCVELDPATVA

B1: Mab102 (bispecific antibody, human IgG1, L234A L235A)
heavy 1: EVQLLESGGGLVQPGGSLRLSCAASGFTFSDNAMGWVRQAPGKGLEWVSAISGPGSSTYYADSVKGRFTISRDNSKNTLYLQMNSLRAEDTAVYYCAKVLGWFDYWGQGTLVTVSSASTKGPSVFPLAPSSKSTSGGTAWLGCEVTDYFPEPVTVSWNSGALTSGVHTFPAVLESSGLYSLSSVVTVPSSSLGTQTYICNVNHKPSNTKVDKKVEPKSCDKTHTCPPCPAPEAAGGPSVFLFPPKPKDTLMISRTPEVTCVVVDVSHEDPEVKFNWYVDGVEVHNAKTKPREEQYNSTYRVVSVLTVLHQDWLNGKEYKCKVSNKALGAPIEKTISKAKGQPREPQVYVYPPSREEMTKNQVSLTCLVKGFYPSDIAVEWESNGQPENNYKTTPPVLDSDGSFALVSKLTVDKSRWQQGNVFSCSVMHEALHNHYTQKSLSLSPG
heavy 2: EVQLLESGGGLVQPGGSLRLSCAASGFTFSDNAMGWVRQAPGKGLEWVSAISGPGSSTYYADSVKGRFTISRDNSKNTLYLQMNSLRAEDTAVYYCAKVLGWFDYWGQGTLVTVSSASTKGPSVFPLAPSSKSTSGGTAWLGCEVTDYFPEPVTVSWNSGALTSGVHTFPAVLESSGLYSLSSVVTVPSSSLGTQTYICNVNHKPSNTKVDKKVEPKSCDGGGGSGGGGSQAVVTQEPSLTVSPGGTVTLTCGSSTGAVTTSNYANWVQEKPGQAFRGLIGGTNKRAPGTPARFSGSLLGGKAALTLSGAQPEDEAEYYCALWYSNLWVFGGGTKLTVLSSASTKGPSVFPLAPSSKSTSGGTAALGCLVKDYFPEPVTVSWNSGALTSGVHTFPAVLQSSGLYSLSSVVTVPSSSLGTQTYICNVNHKPSNTKVDKKVEPKSCDKTHTCPPCPAPEAAGGPSVFLFPPKPKDTLMISRTPEVTCVVVDVSHEDPEVKFNWYVDGVEVHNAKTKPREEQYNSTYRVVSVLTVLHQDWLNGKEYKCKVSNKALGAPIEKTISKAKGQPREPQVYVLPPSREEMTKNQVSLLCLVKGFYPSDIAVEWESNGQPENNYLTWPPVLDSDGSFFLYSKLTVDKSRWQQGNVFSCSVMHEALHNHYTQKSLSLSPG
light 1: EIVLTQSPGTLSLSPGERATLSCRASQSVSSYYLAWYQQKPGQAPRLLISGAGSRATGIPDRFSGSGSGTDFTLTISRLEPEDFAVYYCQQYGYPPDFTFGQGTKVEIKRTVAAPSVAIFPPSDERLKSGTASVVCVLNNFYPREAKVQWKVDNALQSGNSQESVTEQDSKDSTYSLSSRLTLSKADYEKHKVYACEVTHQGLSSPVTKSFNRGEC
light 2: EVQLLESGGGLVQPGGSLRLSCAASGFTFSTYAMNWVRQAPGKGLEWVSRIRSKYNNYATYYADSVKGRFTISRDDSKNTLYLQMNSLRAEDTAVYYCVRHGNFGNSYVSWFAYWGQGTLVTVSSASVAAPSVFIFPPSDEQLKSGTASVVCLLNNFYPREAKVQWKVDNALQSGNSQESVTEQDSKDSTYSLSSTLTLSKADYEKHKVYACEVTHQGLSSPVTKSFNRGEC
notes: also called BCMA TCE; BCMA T cell engager
pH 4 SPR % similarity-BCMA (Human BCMA, TPP208 [1]): 100%
pH 4 SPR % similarity-CD3 (Human CD3ED, TPP401 [2]): 100%
EC50 for BM plasmablast killing (nM), bone marrow mononuclear cells, 24 h [3]: 0.00281 nM
pH 8 SPR % similarity-BCMA (Human BCMA, TPP208 [4]): 95.7%
pH 8 SPR % similarity-CD3 (Human CD3ED, TPP401 [5]): 70.1%
pH 6-TBP SPR % similarity-BCMA (Human BCMA, TPP208 [6]): 54%
pH 6-TBP SPR % similarity-CD3 (Human CD3ED, TPP401 [7]): 72.3%
Kd (BCMA): 60 pM
EC50 for JEKO cell killing (nM), T cell-mediated, annexin V, 20 h, T:E 1:2 [8]: 0.12 nM
pH 6 SPR % similarity-BCMA (Human BCMA, TPP208 [9]): 99.4%
pH 6 SPR % similarity-CD3 (Human CD3ED, TPP401 [10]): 100%
EC50 PB killing (nM), AAV-1 (n = 1) [11]: 0.003 nM
EC50 PB killing (nM), healthy volunteers (n = 3) [11]: 0.007 nM
